Measurements published in paper PMC5780203.

Tests used:
[1] = target: PHD finger of human BPTF protein (human); test: ITC
[2] = target: chromodomain of CBX5; test: ITC

fold weaker Kd than the native H3K4me3 peptide [1] [fold] | fold tighter binding than the H3KC9me3 peptide [2] [fold] | Substance
13 |  | H3KC4me3 peptide MLA (methyllysine analog of H3K4me3)
 | 6 | trimethylated H3 lysine 9 peptide
